In experiment [1] the target is Exd (for EMSA) (Drosophila) (UniProt P40427). The experiment in a line: native gel or EMSA. For orientation: A gel shift assay detects complexes by their altered migration in electrophoresis.
For experiment [2], the target named is Hth (for EMSA) (Drosophila) (UniProt O46339). Description: native gel or EMSA.

From doi:10.1101/2024.07.03.601496 come the findings set out here.

UniProt O46339, sequence (O46339 whole entry): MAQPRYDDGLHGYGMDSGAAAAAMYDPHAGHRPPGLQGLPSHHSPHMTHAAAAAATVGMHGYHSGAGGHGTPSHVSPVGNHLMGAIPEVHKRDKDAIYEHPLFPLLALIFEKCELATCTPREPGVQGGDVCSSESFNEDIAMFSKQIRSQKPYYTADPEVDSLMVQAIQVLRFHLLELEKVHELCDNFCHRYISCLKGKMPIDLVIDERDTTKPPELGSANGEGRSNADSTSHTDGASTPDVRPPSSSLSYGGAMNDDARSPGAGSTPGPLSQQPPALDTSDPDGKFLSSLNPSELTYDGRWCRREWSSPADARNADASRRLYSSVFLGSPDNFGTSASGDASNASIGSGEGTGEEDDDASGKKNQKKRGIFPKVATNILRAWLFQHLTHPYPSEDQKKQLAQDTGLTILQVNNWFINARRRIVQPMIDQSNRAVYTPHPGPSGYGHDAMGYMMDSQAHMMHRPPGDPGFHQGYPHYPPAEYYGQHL
UniProt P40427, sequence (P40427 whole entry): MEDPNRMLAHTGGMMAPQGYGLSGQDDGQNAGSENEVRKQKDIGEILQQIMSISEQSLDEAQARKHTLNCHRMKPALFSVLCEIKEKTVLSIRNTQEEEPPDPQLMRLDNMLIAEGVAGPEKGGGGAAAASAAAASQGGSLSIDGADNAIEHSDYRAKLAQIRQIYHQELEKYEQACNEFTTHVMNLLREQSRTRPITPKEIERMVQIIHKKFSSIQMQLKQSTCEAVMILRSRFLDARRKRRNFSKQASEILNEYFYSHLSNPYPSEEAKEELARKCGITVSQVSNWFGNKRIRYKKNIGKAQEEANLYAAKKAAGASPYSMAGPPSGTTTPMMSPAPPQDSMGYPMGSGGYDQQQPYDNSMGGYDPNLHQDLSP

Consider “Abd-B^QR (QR>AA, for EMSA) (from UniProt P09087 1-493) (natural protein)”, for which the percent reduction of the trimeric complex against wild type Abd-B in experiment [1] and in experiment [2] was 25% in each case.
Regarding “Abd-B^W (W>A, for EMSA) (from UniProt P09087 1-493) (natural protein)”, the percent reduction of the trimeric complex against wild type Abd-B in experiment [1] and in experiment [2] was 56% in each case.
